# Source: PMC8165282
# Target: duck STING-LgBiT-Myc (pBiT-STING-LgBiT-Myc)
# Assay: NanoBiT luciferase complementation in DEFs
# Details: pBiT-STING-LgBiT-Myc 400 ng/well; pBiT-2KNS4B-SmBiT-Flag or mutant 400 ng/well; 20 h posttransfection; parent: est. 1.7e6; read off a plot
row,Substance,response
1,duck TMUV 2KNS4B-SmBiT-Flag (pBiT-2KNS4B-SmBiT-Flag) E7A; Q8A; T9A,830000 RLU
2,duck TMUV 2KNS4B-SmBiT-Flag (pBiT-2KNS4B-SmBiT-Flag) K10A; K11A; D12A,1.4e+06 RLU
3,duck TMUV 2KNS4B-SmBiT-Flag (pBiT-2KNS4B-SmBiT-Flag) D34A; L35A; R36A,830000 RLU
4,duck TMUV 2KNS4B-SmBiT-Flag (pBiT-2KNS4B-SmBiT-Flag) G4A; W5A; L6A,1.3e+06 RLU
5,duck TMUV 2KNS4B-SmBiT-Flag (pBiT-2KNS4B-SmBiT-Flag) N1A; E2A; M3A,930000 RLU

# Same assay, conditions: pBiT-STING-LgBiT-Myc 400 ng/well; pBiT-2KNS4B-SmBiT-Flag or mutant 400 ng/well; 20 h posttransfection; parent: est. 3.3e7; read off a plot
row,Substance,response
1,duck TMUV 2KNS4B-SmBiT-Flag (pBiT-2KNS4B-SmBiT-Flag) E2A,2.4e+07 RLU
2,duck TMUV 2KNS4B-SmBiT-Flag (pBiT-2KNS4B-SmBiT-Flag) R36A,1.9e+07 RLU
3,duck TMUV 2KNS4B-SmBiT-Flag (pBiT-2KNS4B-SmBiT-Flag) N1A,3.6e+07 RLU
4,duck TMUV 2KNS4B-SmBiT-Flag (pBiT-2KNS4B-SmBiT-Flag) T9A,2.9e+07 RLU
5,duck TMUV 2KNS4B-SmBiT-Flag (pBiT-2KNS4B-SmBiT-Flag) M3A,2.2e+07 RLU
6,duck TMUV 2KNS4B-SmBiT-Flag (pBiT-2KNS4B-SmBiT-Flag) L6A,2.7e+07 RLU
7,duck TMUV 2KNS4B-SmBiT-Flag (pBiT-2KNS4B-SmBiT-Flag) W5A,1.5e+07 RLU
8,duck TMUV 2KNS4B-SmBiT-Flag (pBiT-2KNS4B-SmBiT-Flag) D12A,2.4e+07 RLU
9,duck TMUV 2KNS4B-SmBiT-Flag (pBiT-2KNS4B-SmBiT-Flag) G4A,2.3e+07 RLU
10,duck TMUV 2KNS4B-SmBiT-Flag (pBiT-2KNS4B-SmBiT-Flag) L35A,2.6e+07 RLU
11,duck TMUV 2KNS4B-SmBiT-Flag (pBiT-2KNS4B-SmBiT-Flag) K10A,2e+07 RLU
12,duck TMUV 2KNS4B-SmBiT-Flag (pBiT-2KNS4B-SmBiT-Flag) Q8A,2.7e+07 RLU
13,duck TMUV 2KNS4B-SmBiT-Flag (pBiT-2KNS4B-SmBiT-Flag) D34A,1.7e+07 RLU
14,duck TMUV 2KNS4B-SmBiT-Flag (pBiT-2KNS4B-SmBiT-Flag) E7A,2.5e+07 RLU
15,duck TMUV 2KNS4B-SmBiT-Flag (pBiT-2KNS4B-SmBiT-Flag) K11A,2.6e+07 RLU
